B1: library; numbered along this chain (parent)
chain: MAAAGGARLLRAASAVLGGPAGRWLHHAGSRAGSSGLLRNRGPGGSAEASRSLSVSARARSSSEDKITVHFINRDGETLTTKGKVGDSLLDVVVENNLDIDGFGACEGTLACSTCHLIFEDHIYEKLDAITDEENDMLDLAYGLTDRSRLGCQICLTKSMDNMTVRVPETVADARQSIDVGKTS

Variants of: B1
Assay: scaled log2 fold change in cell abundance, elesclomol vs control (0 = silent mean, 1 = nonsense mean) (scaled log2 ratio); higher = higher viability under elesclomol (loss of FDX1 cuproptosis function)
Settings: glucose 10 mM
[1] = with ABC1 FDX1 KO, elesclomol 5 nM, 14 days
[2] = with HEK293T FDX1 KO, elesclomol 40 nM, 11 days
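Note: variant abundance is its share of total variant reads in each endpoint sample, from next-generation sequencing of the integrated ORF PCR-amplified out of genomic DNA.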

MAAAGGARLLRAASAVLGGPAGRWLHHAGSRAGSSGLLRNRGPGGSAEASRSLSVSARARSSSEDKITVHFINRDGETLTTKGKVGDSLLDVVVENNLDKDGFGACEGTLACSTCHLIFEDHIYEKLDAITDEENDMLDLAYGLTDRSRLGCQICLTKSMDNMTVRVPETVADARQSIDVGKTS [I100K]
scaled log2 fold change [1]: 0.223 | scaled log2 fold change [2]: 0.128

MAAAGGARLLRAASAVLGGPAGRWLHHAGSRAGSSGLLRNRGPGGSAEASRSLSVSARARSSSEDKITVHFINRDGETLTTKGKVGDSLLDVVVENNLDADGFGACEGTLACSTCHLIFEDHIYEKLDAITDEENDMLDLAYGLTDRSRLGCQICLTKSMDNMTVRVPETVADARQSIDVGKTS [I100A]
scaled log2 fold change [1]: 0.162 | scaled log2 fold change [2]: -0.8

MAAAGGARLLRAASAVLGGPAGRWLHHAGSRAGSSGLLRNRGPGGSAEASRSLSVSARARSSSEDKITVHFINRDGETLTTKGKVGDSLLDVVVENNLDHDGFGACEGTLACSTCHLIFEDHIYEKLDAITDEENDMLDLAYGLTDRSRLGCQICLTKSMDNMTVRVPETVADARQSIDVGKTS [I100H]
scaled log2 fold change [1]: 0.0888 | scaled log2 fold change [2]: -0.835

MAAAGGARLLRAASAVLGGPAGRWLHHAGSRAGSSGLLRNRGPGGSAEASRSLSVSARARSSSEDKITVHFINRDGETLTTKGKVGDSLLDVVVENNLDCDGFGACEGTLACSTCHLIFEDHIYEKLDAITDEENDMLDLAYGLTDRSRLGCQICLTKSMDNMTVRVPETVADARQSIDVGKTS [I100C]
scaled log2 fold change [1]: -0.292 | scaled log2 fold change [2]: 0.943

MAAAGGARLLRAASAVLGGPAGRWLHHAGSRAGSSGLLRNRGPGGSAEASRSLSVSARARSSSEDKITVHFINRDGETLTTKGKVGDSLLDVVVENNLDEDGFGACEGTLACSTCHLIFEDHIYEKLDAITDEENDMLDLAYGLTDRSRLGCQICLTKSMDNMTVRVPETVADARQSIDVGKTS [I100E]
scaled log2 fold change [1]: 0.167 | scaled log2 fold change [2]: 0.099

MAAAGGARLLRAASAVLGGPAGRWLHHAGSRAGSSGLLRNRGPGGSAEASRSLSVSARARSSSEDKITVHFINRDGETLTTKGKVGDSLLDVVVENNLDPDGFGACEGTLACSTCHLIFEDHIYEKLDAITDEENDMLDLAYGLTDRSRLGCQICLTKSMDNMTVRVPETVADARQSIDVGKTS [I100P]
scaled log2 fold change [1]: 0.146 | scaled log2 fold change [2]: -0.208

MAAAGGARLLRAASAVLGGPAGRWLHHAGSRAGSSGLLRNRGPGGSAEASRSLSVSARARSSSEDKITVHFINRDGETLTTKGKVGDSLLDVVVENNLDNDGFGACEGTLACSTCHLIFEDHIYEKLDAITDEENDMLDLAYGLTDRSRLGCQICLTKSMDNMTVRVPETVADARQSIDVGKTS [I100N]
scaled log2 fold change [1]: 0.181 | scaled log2 fold change [2]: 0.295

MAAAGGARLLRAASAVLGGPAGRWLHHAGSRAGSSGLLRNRGPGGSAEASRSLSVSARARSSSEDKITVHFINRDGETLTTKGKVGDSLLDVVVENNLDMDGFGACEGTLACSTCHLIFEDHIYEKLDAITDEENDMLDLAYGLTDRSRLGCQICLTKSMDNMTVRVPETVADARQSIDVGKTS [I100M]
scaled log2 fold change [1]: -0.119 | scaled log2 fold change [2]: -0.526

MAAAGGARLLRAASAVLGGPAGRWLHHAGSRAGSSGLLRNRGPGGSAEASRSLSVSARARSSSEDKITVHFINRDGETLTTKGKVGDSLLDVVVENNLDFDGFGACEGTLACSTCHLIFEDHIYEKLDAITDEENDMLDLAYGLTDRSRLGCQICLTKSMDNMTVRVPETVADARQSIDVGKTS [I100F]
scaled log2 fold change [1]: -0.0589 | scaled log2 fold change [2]: -0.586

MAAAGGARLLRAASAVLGGPAGRWLHHAGSRAGSSGLLRNRGPGGSAEASRSLSVSARARSSSEDKITVHFINRDGETLTTKGKVGDSLLDVVVENNLDGDGFGACEGTLACSTCHLIFEDHIYEKLDAITDEENDMLDLAYGLTDRSRLGCQICLTKSMDNMTVRVPETVADARQSIDVGKTS [I100G]
scaled log2 fold change [1]: -0.02 | scaled log2 fold change [2]: 0.208

MAAAGGARLLRAASAVLGGPAGRWLHHAGSRAGSSGLLRNRGPGGSAEASRSLSVSARARSSSEDKITVHFINRDGETLTTKGKVGDSLLDVVVENNLDLDGFGACEGTLACSTCHLIFEDHIYEKLDAITDEENDMLDLAYGLTDRSRLGCQICLTKSMDNMTVRVPETVADARQSIDVGKTS [I100L]
scaled log2 fold change [1]: -0.145 | scaled log2 fold change [2]: 0.198

MAAAGGARLLRAASAVLGGPAGRWLHHAGSRAGSSGLLRNRGPGGSAEASRSLSVSARARSSSEDKITVHFINRDGETLTTKGKVGDSLLDVVVENNLDDDGFGACEGTLACSTCHLIFEDHIYEKLDAITDEENDMLDLAYGLTDRSRLGCQICLTKSMDNMTVRVPETVADARQSIDVGKTS [I100D]
scaled log2 fold change [1]: 0.409 | scaled log2 fold change [2]: -0.663

MAAAGGARLLRAASAVLGGPAGRWLHHAGSRAGSSGLLRNRGPGGSAEASRSLSVSARARSSSEDKITVHFINRDGETLTTKGKVGDSLLDVVVENNLTIDGFGACEGTLACSTCHLIFEDHIYEKLDAITDEENDMLDLAYGLTDRSRLGCQICLTKSMDNMTVRVPETVADARQSIDVGKTS [D99T]
scaled log2 fold change [1]: 0.182 | scaled log2 fold change [2]: -0.092

MAAAGGARLLRAASAVLGGPAGRWLHHAGSRAGSSGLLRNRGPGGSAEASRSLSVSARARSSSEDKITVHFINRDGETLTTKGKVGDSLLDVVVENNLVIDGFGACEGTLACSTCHLIFEDHIYEKLDAITDEENDMLDLAYGLTDRSRLGCQICLTKSMDNMTVRVPETVADARQSIDVGKTS [D99V]
scaled log2 fold change [1]: 0.0908 | scaled log2 fold change [2]: -1.19

MAAAGGARLLRAASAVLGGPAGRWLHHAGSRAGSSGLLRNRGPGGSAEASRSLSVSARARSSSEDKITVHFINRDGETLTTKGKVGDSLLDVVVENNLWIDGFGACEGTLACSTCHLIFEDHIYEKLDAITDEENDMLDLAYGLTDRSRLGCQICLTKSMDNMTVRVPETVADARQSIDVGKTS [D99W]
scaled log2 fold change [1]: -0.0217 | scaled log2 fold change [2]: -0.818

MAAAGGARLLRAASAVLGGPAGRWLHHAGSRAGSSGLLRNRGPGGSAEASRSLSVSARARSSSEDKITVHFINRDGETLTTKGKVGDSLLDVVVENNLYIDGFGACEGTLACSTCHLIFEDHIYEKLDAITDEENDMLDLAYGLTDRSRLGCQICLTKSMDNMTVRVPETVADARQSIDVGKTS [D99Y]
scaled log2 fold change [1]: -0.0205 | scaled log2 fold change [2]: 0.198
